Molecular target: T1, IRF3 (mouse (endogenous in mouse ESCs)), P70671
T1 chain: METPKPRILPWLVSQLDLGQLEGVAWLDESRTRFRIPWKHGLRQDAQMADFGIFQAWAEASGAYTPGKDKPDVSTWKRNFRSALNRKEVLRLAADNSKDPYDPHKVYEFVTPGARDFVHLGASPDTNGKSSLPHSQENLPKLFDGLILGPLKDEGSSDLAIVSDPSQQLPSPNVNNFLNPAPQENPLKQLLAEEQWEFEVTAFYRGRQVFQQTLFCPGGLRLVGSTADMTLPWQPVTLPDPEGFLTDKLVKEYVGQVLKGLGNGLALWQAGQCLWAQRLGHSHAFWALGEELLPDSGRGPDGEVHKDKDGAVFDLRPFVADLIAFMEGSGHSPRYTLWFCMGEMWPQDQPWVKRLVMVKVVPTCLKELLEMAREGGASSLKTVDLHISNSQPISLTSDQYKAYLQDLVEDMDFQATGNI
Test: native gel or EMSA
Settings: remark: other sources report otherwise

B1: IRF3, P70671 1-419 (natural protein)
chain: T1 chain
  stoichiometry N: 2

From article doi:10.1101/2024.02.25.581951
